# Results: publication PMC8940892
# Target: small capsid protein (SCP, VP26) of pseudorabies virus (pseudorabies virus (PRV), Bartha strain)
# Test: cryo-EM structure
substance,measurement,value
"small capsid protein (SCP, VP26) of pseudorabies virus (natural protein)",stoichiometry N,6
